Experimental data published in PMC7763993, “Depletion of Boric Acid and Cobalt from Cultivation Media: Impact on Recombinant Protein Production with Komagataella phaffii” (Bioengineering, 2020).

Substrate: CCn1c(=NN=c2sc3cc(S(=O)(=O)O)ccc3n2CC)sc2cc(S(=O)(=O)O)ccc21
Assay: purified protein
Type: biochemical, Armoracia rusticana
Conditions: H2O2 co-substrate, 50 mM phosphate citrate pH 5, 30 °C, 0.05-7 mM ABTS, enzyme from cultivation F5 (glass, with Co and boric acid)

B1: horseradish peroxidase isoenzyme A2A (HRP) (Armoracia rusticana) (protein)
chain: QLNATFYSGTCPNASAIVRSTIQQAFQSDTRIGASLIRLHFHDCFVDGCDASILLDDSGSIQSEKNAGPNANSARGFNVVDNIKTALENTCPGVVSCSDILALASEASVSLTGGPSWTVLLGRRDSLTANLAGANSAIPSPFEGLSNITSKFSAVGLNTNDLVALSGAHTFGRARCGVFNNRLFNFSGTNGPDPTLNSTLLSSLQQLCPQNGSASTITNLDLSTPDAFDNNYFANLQSNNGLLQSDQELFSTLGSATIAVVTSFASNQTLFFQAFAQSMINMGNISPLTGSNGEIRLDCKKVDGS
notes: secreted from K. phaffii BSYBG11 MutS, codon-optimized gene; glycosylated, negative AIEX flow-through; monomeric, 2 calcium, heme
Which Km does the source give for B1 here?
The Km was 2110 ± 350 µM.
